Measured values as given in paper PMC7822592, “The half-life of the bone-derived hormone osteocalcin is regulated through O-glycosylation in mice, but not in humans” (eLife, 2020).
No end group written: not given here. O‑glycan = not defined here

Assays:
[1] = In vivo half-life assay, serum OCN after intraperitoneal injection in Bglap-/- mice; set-up: species or system mouse; conditions: for serum OCN / Serum OCN at 120 minutes: fed Bglap-/- male mice; for serum OCN / % OCN from initial (relative to maximum at 30 min) / % OCN from initial, mean used for 1/2 life: 40 ng/g i.p.; for serum OCN: ELISA; for % OCN from initial (relative to maximum at 30 min) / % OCN from initial, mean used for 1/2 life: serum, fasted Bglap-/- mice
Description: For in vivo half-life assay, Bglap-/- male mice were injected intraperitoneally with 40 or 80 ng/g of body weight of mouse O-glycosylated ucOCN or non-glycosylated ucOCN, serum OCN level was analyzed at indicated time points using total mouse OCN ELISA. In all ex vivo and in vivo studies, mouse or human proteins were prepared in saline solution (0.9% NaCl) containing BSA (35 mg/ml) as a carrier.

INS-1 832/3 cells [2] = assay: Ins1 gene expression in INS-1 832/3 cells treated with ucOCN; type: cell-based, rat; conditions: 8 hr, qPCR
Description: (§1) The INS-1 832/3 rat insulinoma cell line (Millipore-Sigma) was cultured in RPMI-1640 with 11.1 mM D-glucose, supplemented with 2 mM L-glutamine, 1 mM sodium pyruvate, 10 mM HEPES, 0.05 mM β-mercaptoethanol and 10% FBS ([Hohmeier et al., 2000]). On day 1, cells were plated at 3 × 10^5 cells per well in 12-well plates and on day 5, cells were washed with PBS and incubated with culture media containing 5 mM D-glucose. Twenty-four hours later, cells were washed with PBS and incubated for 4 hr in culture media containing 1% FBS, 5 mM D-glucose and 0.1% BSA. OCN was added for 8 hr before supernatants and cells were harvested. ucOCN and O-gly ucOCN concentration were measured in supernatants by ELISA and cells were lyzed and RNA extracted as described in the material and methods section. Gene expression was analyzed using rat specific primers for Ins1 and Gapdh.

INS-1 832/3 cells [3] = assay: OCN stability in INS-1 832/3 cell culture media; type: in vitro ADME, rat; conditions: 8 hours with INS-1 cells at 37°C, ELISA
Description: as §1

## O-gly ucOCN: O-glycosylated uncarboxylated mouse osteocalcin produced and purified from HEK293 as Fc fusion, released by thrombin (YLGASVPS(O‑glycan)PDPLEPTREQCELNPACDELSDQYGLKTAYKRIYGITI; ends and bridges not checked; also: O-glycosylated (HexNAc, Hex, NANA); UniProt P86546 50-95, looked up)
[1]; 120 min, mouse 4
  serum OCN: 13.3 ng/mL
  % OCN from initial (relative to maximum at 30 min): 74.6%
[1]; 120 min, mouse 5
  serum OCN: 10.2 ng/mL
  % OCN from initial (relative to maximum at 30 min): 74.7%
[1]; 120 min, mouse 6
  serum OCN: 7.5 ng/mL
[1]; 120 min, mouse 7
  serum OCN: 4.4 ng/mL
[1]; 120 min, mouse 8
  serum OCN: 8.5 ng/mL
[1]; 120 min, mouse 9
  serum OCN: 6.4 ng/mL
[1]; 120 min, mouse 10
  serum OCN: 5.9 ng/mL
[1]; 180 min, mouse 1
  serum OCN: 1.2 ng/mL
[1]; 180 min, mouse 2
  serum OCN: 2.3 ng/mL
[1]; 180 min, mouse 3
  serum OCN: 1.0 ng/mL
[1]; 180 min, mouse 4
  serum OCN: 2.9 ng/mL
[1]; 180 min, mouse 5
  serum OCN: 2.4 ng/mL
[1]; 180 min, mouse 6
  serum OCN: 4.2 ng/mL
[1]; 180 min, mouse 7
  serum OCN: 3.5 ng/mL
[1]; 180 min, mouse 8
  serum OCN: 4.0 ng/mL
[1]; 180 min, mouse 9
  serum OCN: 3.7 ng/mL
[1]; 180 min, mouse 10
  serum OCN: 3.9 ng/mL
[1]; dose 40 ng/g i.p., mouse 1
  Serum OCN at 120 minutes: 9.5 ng/mL
[1]; dose 40 ng/g i.p., mouse 2
  Serum OCN at 120 minutes: 4.6 ng/mL
[1]; dose 40 ng/g i.p., mouse 3
  Serum OCN at 120 minutes: 13.3 ng/mL
[1]; dose 40 ng/g i.p., mouse 4
  Serum OCN at 120 minutes: 10.2 ng/mL
[1]; dose 80 ng/g i.p., mouse 1
  Serum OCN at 120 minutes: 11.6 ng/mL
[1]; dose 80 ng/g i.p., mouse 2
  Serum OCN at 120 minutes: 22.5 ng/mL
[1]; dose 80 ng/g i.p., mouse 3
  Serum OCN at 120 minutes: 25.2 ng/mL
[1]; dose 80 ng/g i.p., mouse 4
  Serum OCN at 120 minutes: 14.9 ng/mL
[1]; 30 min, mouse 1
  % OCN from initial (relative to maximum at 30 min): 100.0%
[1]; 30 min, mouse 2
  % OCN from initial (relative to maximum at 30 min): 100.0%
[1]; 30 min, mouse 3
  % OCN from initial (relative to maximum at 30 min): 100.0%
[1]; 30 min, mouse 4
  % OCN from initial (relative to maximum at 30 min): 100.0%
[1]; 30 min, mouse 5
  % OCN from initial (relative to maximum at 30 min): 100.0%
[1]; 60 min, mouse 1
  % OCN from initial (relative to maximum at 30 min): 89.4%
[1]; 60 min, mouse 2
  % OCN from initial (relative to maximum at 30 min): 88.9%
[1]; 60 min, mouse 3
  % OCN from initial (relative to maximum at 30 min): 97.3%
[1]; 60 min, mouse 4
  % OCN from initial (relative to maximum at 30 min): 86.4%
[1]; 60 min, mouse 5
  % OCN from initial (relative to maximum at 30 min): 90.9%
[1]; 90 min, mouse 1
  % OCN from initial (relative to maximum at 30 min): 85.8%
[1]; 90 min, mouse 2
  % OCN from initial (relative to maximum at 30 min): 74.3%
[1]; 90 min, mouse 3
  % OCN from initial (relative to maximum at 30 min): 85.8%
[1]; 90 min, mouse 4
  % OCN from initial (relative to maximum at 30 min): 74.6%
[1]; 90 min, mouse 5
  % OCN from initial (relative to maximum at 30 min): 75.0%
[1]; 120 min, mouse 1
  % OCN from initial (relative to maximum at 30 min): 70.4%
[1]; 120 min, mouse 2
  % OCN from initial (relative to maximum at 30 min): 66.4%
[1]; 120 min, mouse 3
  % OCN from initial (relative to maximum at 30 min): 75.1%
[1]; time 0 min of declining phase
  % OCN from initial, mean used for 1/2 life: 100.0%
[1]; time 30 min of declining phase
  % OCN from initial, mean used for 1/2 life: 90.6%
[1]; time 60 min of declining phase
  % OCN from initial, mean used for 1/2 life: 79.1%
[1]; time 90 min of declining phase
  % OCN from initial, mean used for 1/2 life: 72.2%
INS-1 832/3 cells [2]; 0.1 ng/mL, replicate 1
  Ins1 gene expression (Fold change relative to vehicle): 2.4 Fold change
INS-1 832/3 cells [2]; 0.1 ng/mL, replicate 2
  Ins1 gene expression (Fold change relative to vehicle): 1.6 Fold change
INS-1 832/3 cells [2]; 0.1 ng/mL, replicate 3
  Ins1 gene expression (Fold change relative to vehicle): 2.2 Fold change
INS-1 832/3 cells [2]; 0.1 ng/mL, replicate 4
  Ins1 gene expression (Fold change relative to vehicle): 2.6 Fold change
INS-1 832/3 cells [2]; 0.1 ng/mL, replicate 5
  Ins1 gene expression (Fold change relative to vehicle): 3.1 Fold change
INS-1 832/3 cells [2]; 0.1 ng/mL, replicate 6
  Ins1 gene expression (Fold change relative to vehicle): 3.0 Fold change
INS-1 832/3 cells [2]; 0.1 ng/mL, replicate 7
  Ins1 gene expression (Fold change relative to vehicle): 4.2 Fold change
INS-1 832/3 cells [2]; 0.1 ng/mL, replicate 8
  Ins1 gene expression (Fold change relative to vehicle): 2.7 Fold change
INS-1 832/3 cells [2]; 0.3 ng/mL, replicate 1
  Ins1 gene expression (Fold change relative to vehicle): 0.562 Fold change
INS-1 832/3 cells [2]; 0.3 ng/mL, replicate 2
  Ins1 gene expression (Fold change relative to vehicle): 1.1 Fold change
INS-1 832/3 cells [2]; 0.3 ng/mL, replicate 3
  Ins1 gene expression (Fold change relative to vehicle): 1.1 Fold change
INS-1 832/3 cells [2]; 0.3 ng/mL, replicate 4
  Ins1 gene expression (Fold change relative to vehicle): 12.1 Fold change
INS-1 832/3 cells [2]; 0.3 ng/mL, replicate 5
  Ins1 gene expression (Fold change relative to vehicle): 2.0 Fold change
INS-1 832/3 cells [2]; 0.3 ng/mL, replicate 6
  Ins1 gene expression (Fold change relative to vehicle): 8.6 Fold change
INS-1 832/3 cells [2]; 0.3 ng/mL, replicate 7
  Ins1 gene expression (Fold change relative to vehicle): 2.7 Fold change
INS-1 832/3 cells [2]; 0.3 ng/mL, replicate 8
  Ins1 gene expression (Fold change relative to vehicle): 4.9 Fold change
INS-1 832/3 cells [2]; 0.3 ng/mL, replicate 9
  Ins1 gene expression (Fold change relative to vehicle): 2.3 Fold change
INS-1 832/3 cells [2]; 0.3 ng/mL, replicate 10
  Ins1 gene expression (Fold change relative to vehicle): 0.7 Fold change
INS-1 832/3 cells [3]; replicate 1
  OCN in stimulation media: 0.12 ng/mL
INS-1 832/3 cells [3]; replicate 2
  OCN in stimulation media: 0.13 ng/mL
INS-1 832/3 cells [3]; replicate 3
  OCN in stimulation media: 0.13 ng/mL
